Assay results from PMC11511902.
Like-named read-outs stand apart in the source and are kept apart here.

How the values were obtained:
Assay in all cases: SPR
His6-gp1 [1] = target: T1, His6-gp1 (Bacillus thuringiensis phage GIL01 …, UniProt Q7WSG8 1-58)
T1 sequence: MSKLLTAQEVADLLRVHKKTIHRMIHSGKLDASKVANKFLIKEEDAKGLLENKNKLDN

His6-gp1 [2] = target: T1, His6-gp1; remark: listed apart in the source
His6-gp1 [3] = target: T1, His6-gp1; remark: listed apart in the source

B1: SPR_wt 81-bp P2 fragment (dsDNA)
DNA 1: GTTACTACTCGAGCGAACATTTGCATTACTGGTAACTTTCGGGTAATATTGGTAGCAGAGAGGGACAAACGGGACAAATCGAGACACGATACATAC
DNA 2: GTATGTATCGTGTCTCGATTTGTCCCGTTTGTCCCTCTCTGCTACCAATATTACCCGAAAGTTACCAGTAATGCAAATGTT
DNA 3: CGCTCGAGTAGTAAC
B1: binds (His6-gp1 [1]).

B2: SPR_252Δ262 (cp33.14) 81-bp fragment (dsDNA)
DNA 1: GTTACTACTCGAGCGTGTAATATAAAAACATTTGCATTACTGGTAATATTGGTAGCAGAGAGGGACAAACGGGACAAATCGAGACACGATACATAC
DNA 2: GTATGTATCGTGTCTCGATTTGTCCCGTTTGTCCCTCTCTGCTACCAATATTACCAGTAATGCAAATGTTTTTATATTACA
DNA 3: CGCTCGAGTAGTAAC
B2: binds (His6-gp1 [2]).

B3: SPR_172Δ355 (cp33.1) 81-bp fragment (dsDNA)
DNA 1: GTTACTACTCGAGCGAAAAGGAAAAGTGTGACAAGATATTCCAAGGGTGCTATAATAGGAAATGAGTAAACTACTGACTGCGCAAGAGGTTGCAGA
DNA 2: TCTGCAACCTCTTGCGCAGTCAGTAGTTTACTCATTTCCTATTATAGCACCCTTGGAATATCTTGTCACACTTTTCCTTTT
DNA 3: CGCTCGAGTAGTAAC
B3: no binding (His6-gp1 [3]).
